Experimental data published in US20250034266A1 (ZAI LAB SHANGHAI, published 2025).

T1: human CCR1 (human, UniProt P32246 1-355)
T1 construct: whole, on cells
T1 sequence (looked up): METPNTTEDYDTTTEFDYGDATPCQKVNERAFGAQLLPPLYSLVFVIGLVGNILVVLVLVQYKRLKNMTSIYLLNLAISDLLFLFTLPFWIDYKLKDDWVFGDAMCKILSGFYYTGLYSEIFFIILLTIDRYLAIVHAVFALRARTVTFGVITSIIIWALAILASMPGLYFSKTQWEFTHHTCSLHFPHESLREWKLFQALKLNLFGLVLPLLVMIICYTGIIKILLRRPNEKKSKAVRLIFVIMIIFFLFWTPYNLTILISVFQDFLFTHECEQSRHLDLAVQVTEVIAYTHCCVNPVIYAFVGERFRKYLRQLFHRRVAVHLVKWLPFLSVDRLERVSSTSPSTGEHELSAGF

T2: human CCR4 (human, UniProt P51679 1-360)
T2 construct: whole, on cells
T2 sequence (looked up): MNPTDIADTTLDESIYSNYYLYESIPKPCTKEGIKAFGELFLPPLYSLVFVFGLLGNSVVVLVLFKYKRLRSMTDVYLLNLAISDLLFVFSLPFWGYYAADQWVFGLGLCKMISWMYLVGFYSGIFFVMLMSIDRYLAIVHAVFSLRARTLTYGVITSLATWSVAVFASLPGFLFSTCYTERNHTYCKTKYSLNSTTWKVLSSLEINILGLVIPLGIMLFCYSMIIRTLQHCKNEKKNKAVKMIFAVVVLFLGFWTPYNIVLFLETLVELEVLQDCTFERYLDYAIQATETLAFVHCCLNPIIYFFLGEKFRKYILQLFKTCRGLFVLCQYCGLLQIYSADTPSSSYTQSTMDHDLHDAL

B1: Hu348-4 (antibody, human IgG1, V domains shown)
VH: EVQLVESGGGLVQPGGSLKLSCATSGFSFSNYRMHWLRQASGKGLEWVGVITVKSDNYGANYAASVKGRFTISRDDSKSSVYLQMNSLKTEDTAVYYCSSLGRVAYWGQGTLVTVSS
VL: DIQMTQSPSSVSASVGDRVTITCKASQNVDTNVVWYQQKPGQSPKALIYSASSRYSGVPSRFSGSGSGTDFTLTISSLQPEDFATYYCQQHNSFPLTFGQGTKLEIK
notes: humanized, human IgG1; also called Hu348-4 HuIgG1
B2: Hu149-9 (antibody, human IgG1, V domains shown)
VH: EVQLVESGGGLVQPGGSLKLSCAASGFTFNTYAMNWVRQASGKGLEWVGRIRSKSNFYATAYAASVKGRFTISRDDSKNTAYLQMNSLKTEDTAVYYCTRGRDYGSSYAMDYWGQGTLVTVSS
VL: DIVMTQSPLSLPVTPGEPASISCRSSKSLLHSNANTYLYWFLQKPGQSPQLLIYRMSNLASGVPDRFSGSGSGTDFTLKISRVEAEDVGVYYCMQHLEYPLTFGGGTKVELK
notes: humanized, human IgG1; also called Hu149-9 HuIgG1
B3: Hu149-11 (antibody, human IgG1)
heavy: not shown
VL: B2 VL
notes: also called Hu149-11G1
B4: Hu149-12 (antibody, human IgG1)
heavy: not shown
VL: B2 VL
notes: human IgG1; suffix G1 read as wild type as for Hu149-11G1; also called Hu149-12G1
B5: CM149 (antibody, V domains shown)
VH: EVQLVESGGGLVQPKGSLKLSCAASGFTFNTYAMNWVRQAPGKGLEWVARIRSKSNFYATYYADSVKDRFTISRDDSQDMLYLQMNILKTEDTAIYYCVRGRDYGSSYAMDYWGQGTSVTVSS
VL: DIVMTQAAPSVPVTPGESVSISCRSSKSLLHSNANTYLYWFLQRPGQSPQLLIYRMSNLASGVPDRFSGSGSGTAFTLRISRVEAEDVGVYYCMQHLEYPLTFGAGTKLELK
notes: CM149 is not defined in words; also called CM149 HuIgG1; parental antibody CM149

Legend:
[1] = target: T3, human CCR8 (human, UniProt P51685 1-355); test: FACS on HEK293-human CCR8 cells
T3 construct: whole, on cells; also called hCCR8

[2] = target: T3, human CCR8; test: FACS, competition with AF647-human CCL1 on CHO-K1-human CCR8 cells
[3] = target: T1, human CCR1; test: FACS on ExpiCHO-S-human CCR1 cells
Description: (§1) ExpiCHO-S cells were transiently transfected with human CCR1 or human CCR4. A total of 5×10⁴ cells for each well were seeded in 96-well plates and washed with FACS buffer (DPBS containing 1.5% FBS) for once. […] Cells were incubated with 50 μL of diluted antibodies at 4° C. for 1 hour. […] After primary antibody incubation, cells were washed for 3 times by FACS buffer. Then, cells were stained by Alexa Flu647 labeled anti-human IgG secondary antibody (Jackson ImmunoResearch, #109606170) or Alexa Flu647 labeled anti-mouse IgG secondary antibody (Jackson ImmunoResearch, #115605072) at 1:600 dilution in FACS buffer for 0.5 hour at 4° C. Flow cytometry was performed to measure the binding.

[4] = target: T4, cynomolgus CCR8 (cynomolgus, UniProt G7NYJ2 1-355); test: FACS on ExpiCHO-S-cynomolgus CCR8 cells
T4 construct: whole, on cells

[5] = target: T2, human CCR4; test: FACS on ExpiCHO-S-human CCR4 cells
Description: as §1

[6] = target: T3, human CCR8; test: cell-based or functional assay
[7] = target: T3, human CCR8; test: FACS, competition with CCL1 on CHO-K1-human CCR8 cells
[8] = target: T4, cynomolgus CCR8; test: FACS on HEK293-cynomolgus CCR8 cells
Description: (§2) A total of 5×10⁴ cells for each well were seeded in 96-well plates and washed with FACS buffer (DPBD containing 1.5% FBS) for once. Antibodies were prepared with 3-fold serial dilution ranging from 100 nM to 0.0017 nM in FACS buffer. Cells were incubated with 50 μL of diluted antibodies at 4° C. for 1 hour. […] After primary antibody incubation, cells were washed for 3 times by FACS buffer. Then, cells were stained by Alexa Flu647 labeled anti-human IgG secondary antibody (Jackson ImmunoResearch, #109606170) or Alexa Flu647 labeled anti-mouse IgG secondary antibody (Jackson ImmunoResearch, #115605072) at 1:600 dilution in FACS buffer for 0.5 hour at 4° C. After washed for 3 times, Flow cytometry was performed to measure the binding.

[9] = target: T3, human CCR8; test: FACS on HEK293-human CCR8 cells; remark: listed apart in the source
Description: as §2

[10] = target: T3, human CCR8; test: FACS on CHO-K1-human CCR8 cells
[11] = target: T3, human CCR8; test: FACS on HuT78 cells (endogenous human CCR8)
Method in brief: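 HuT78 cells with endogenous human CCR8 were incubated with diluted antibodies for 1 h at 4 °C, washed, then stained 0.5 h at 4 °C with Alexa Fluor 647 anti-human IgG (1:600). Binding measured by flow cytometry.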

[12] = target: T3, human CCR8; test: FACS, competition with AF647-human CCL1 on CHO-K1-human CCR8 cells; remark: listed apart in the source
[13] = target: T4, cynomolgus CCR8; test: FACS on HEK293-cynomolgus CCR8 cells; remark: listed apart in the source
[14] = target: T3, human CCR8; test: cell-based or functional assay; remark: listed apart in the source
[15] = target: T4, cynomolgus CCR8; test: FACS on HEK293-cynomolgus CCR8 cells; remark: listed apart in the source
[16] = target: T3, human CCR8; test: FACS, competition with CCL1 on CHO-K1-human CCR8 cells; remark: listed apart in the source
[17] = target: T3, human CCR8; test: cell-based or functional assay; remark: listed apart in the source
[18] = target: T3, human CCR8; test: FACS on CHO-K1-human CCR8 cells; remark: listed apart in the source
[19] = target: T3, human CCR8; test: FACS on HuT78 cells (endogenous human CCR8); remark: listed apart in the source
[20] = target: T3, human CCR8; test: FACS, competition with AF647-human CCL1 on CHO-K1-human CCR8 cells; remark: listed apart in the source
[21] = target: T3, human CCR8; test: FACS on HEK293-human CCR8 cells; remark: listed apart in the source
Method in brief: (§3)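 Antibodies, 3-fold dilutions from 100 nM to 0.0017 nM, incubated with 5×10⁴ HEK293 cells in FACS buffer (1.5% FBS) 1 h at 4 °C. Binding detected by flow cytometry after Alexa Fluor 647 anti-human or anti-mouse IgG secondary (1:600, 0.5 h, 4 °C).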

[22] = target: T4, cynomolgus CCR8; test: FACS on HEK293-cynomolgus CCR8 cells; remark: listed apart in the source
Method in brief: as §3

T4 sequence (G7NYJ2 entry or part of it): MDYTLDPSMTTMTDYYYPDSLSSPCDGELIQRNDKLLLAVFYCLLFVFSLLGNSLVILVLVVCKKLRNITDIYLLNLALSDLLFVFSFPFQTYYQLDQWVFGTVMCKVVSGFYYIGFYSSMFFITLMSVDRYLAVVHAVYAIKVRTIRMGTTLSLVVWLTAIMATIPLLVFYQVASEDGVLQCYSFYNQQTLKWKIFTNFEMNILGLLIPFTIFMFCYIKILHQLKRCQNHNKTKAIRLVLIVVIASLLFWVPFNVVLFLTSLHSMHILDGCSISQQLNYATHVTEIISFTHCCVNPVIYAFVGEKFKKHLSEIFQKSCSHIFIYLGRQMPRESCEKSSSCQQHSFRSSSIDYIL
T3 sequence (P51685 whole entry): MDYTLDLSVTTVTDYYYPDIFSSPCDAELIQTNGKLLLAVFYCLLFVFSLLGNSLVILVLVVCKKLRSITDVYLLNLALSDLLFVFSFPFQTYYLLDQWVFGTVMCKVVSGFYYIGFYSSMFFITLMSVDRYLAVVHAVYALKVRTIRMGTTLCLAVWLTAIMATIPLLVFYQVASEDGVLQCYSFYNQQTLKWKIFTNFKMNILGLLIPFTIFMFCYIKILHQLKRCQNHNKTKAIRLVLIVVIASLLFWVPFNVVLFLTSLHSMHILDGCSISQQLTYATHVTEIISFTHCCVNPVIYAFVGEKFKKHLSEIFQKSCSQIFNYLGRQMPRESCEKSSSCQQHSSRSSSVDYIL

| Binder | EC50, ADCC with human PBMC [6] [nM] | Max specific lysis (%), ADCC with human PBMC [6] [%] | IC50 [7] [nM] | Max Inhibition (%) [7] [%] | EC50 [8] [nM] | EC50 [9] [nM] | EC50 [10] [nM] | Max MFI [10] [MFI] | Max MFI [11] [MFI] | IC50 [12] [nM] | EC50 [13] [nM] | Max MFI [13] [MFI] | IC50, blocking of cell migration induced by CCL1 [14] [nM] | EC50 [15] [nM] | Max MFI [15] [MFI] | IC50 [16] [nM] | Max Inhibition (%) [16] [%] | IC50, inhibition of CCL1 induced β-Arrestin recruitment [17] [nM] | Max Inhibition (%), CCL1 induced β-Arrestin recruitment [17] [%] | EC50 [11] [nM] | also measured |
| --- | --- | --- | --- | --- | --- | --- | --- | --- | --- | --- | --- | --- | --- | --- | --- | --- | --- | --- | --- | --- | --- |
| B1 | 0.517 | 13.5 | – | – | – | – | – | – | – | – | – | – | – | – | – | – | – | – | – | – | EC50 [1]: 0.109 nM; Max MFI [1]: 5120 MFI; IC50 [2]: 0.151 nM; Max Inhibition (%) [2]: 94.6%; binding result [3]: no binding (tested: 200 nM); EC50 [4]: 0.087 nM; Max MFI [4]: 534 MFI; binding result [5]: no binding (tested: 200 nM) |
| B2 | 0.06 | 7.56 | 0.087 | 99.2 | 0.12 | 0.072 | 0.0487 | 625000 | 32300 | 0.119 | 0.0824 | 3.53e+06 | – | – | – | – | – | – | – | – | – |
| B3 | – | – | 0.0988 | 100 | – | – | 0.0797 | 648000 | 30200 | – | 0.137 | 4.6e+06 | 0.849 | 0.262 | 4.48e+06 | 0.283 | 99.5 | 0.8 | 85.2 | 0.278 | EC50 [18]: 0.158 nM; Max MFI [18]: 210000 MFI; EC50 [19]: 0.735 nM; Max MFI [19]: 57900 MFI |
| B4 | – | – | 0.0982 | 100 | – | – | 0.0675 | 638000 | 26900 | – | 0.199 | 4.04e+06 | 0.953 | 0.17 | 3.61e+06 | 0.184 | 99.5 | 0.35 | 85.8 | 0.17 | EC50 [18]: 0.093 nM; Max MFI [18]: 199000 MFI; EC50 [19]: 0.25 nM; Max MFI [19]: 48100 MFI |
| B5 | 0.067 | 10.3 | – | – | 0.263 | 0.18 | – | – | – | 0.708 | – | – | – | – | – | – | – | – | – | – | IC50 [20]: 0.681 nM; Max Inhibition (%) [20]: 97.8%; EC50 [21]: 0.142 nM; Max MFI [21]: 7100 MFI; EC50 [22]: 0.235 nM; Max MFI [22]: 18100 MFI |
